Values of other authors as cited in publication PMC6769993, “Immunomodulatory Functions of the Human Cathelicidin LL-37 (aa 13–31)-Derived Peptides are Associated with Predicted α-Helical Propensity and Hydrophobic Index” (Biomolecules, 2019).

Excerpt: The minimum region of LL-37 required for its immunomodulatory functions is an internal sequence from amino acids 13–31 [13], known as peptide IG-19. […] IG-19 suppresses inflammatory cytokine production by engaging various signaling intermediates in the presence of bacterial endotoxin or cytokine IL-32 [10, 13, 14]. Both LL-37 and IG-19 also share structural similarities; these are both α-helical amphipathic peptides with net positive charges of +6 and +5, respectively. Previous s ...

Substance: LL-37: the only human cathelicidin cationic host defense peptide, 37 amino acids
- Net positive charge: +6
